Test results from patent publication US20140087995A1 (published 2014).
Blank lines part the entries; values can stand above or below the binder they belong to. Numbered stars: 1 amine (or outer) side, 2 acyl side, 3 side chain; on linkers, the order of the positions; unused ones are H or OH. Bridge positions count the residues as written; N and C are the ends. Side chains are listed from the residue outwards. Ends that are not written are not given here. * marks the point of attachment. C20 diacid = O=C(O)CCCCCCCCCCCCCCCCCCC(=O)*; γGlu = O=C(O)[C@H](CCC(=O)[*:2])N[*:1]; AEEA = NCCOCCOCC(=O)O

How the values were obtained:
[1] = target: T1, human calcitonin receptor (human, UniProt P30988 25-474); experiment: cell-based or functional assay
T1 sequence (looked up): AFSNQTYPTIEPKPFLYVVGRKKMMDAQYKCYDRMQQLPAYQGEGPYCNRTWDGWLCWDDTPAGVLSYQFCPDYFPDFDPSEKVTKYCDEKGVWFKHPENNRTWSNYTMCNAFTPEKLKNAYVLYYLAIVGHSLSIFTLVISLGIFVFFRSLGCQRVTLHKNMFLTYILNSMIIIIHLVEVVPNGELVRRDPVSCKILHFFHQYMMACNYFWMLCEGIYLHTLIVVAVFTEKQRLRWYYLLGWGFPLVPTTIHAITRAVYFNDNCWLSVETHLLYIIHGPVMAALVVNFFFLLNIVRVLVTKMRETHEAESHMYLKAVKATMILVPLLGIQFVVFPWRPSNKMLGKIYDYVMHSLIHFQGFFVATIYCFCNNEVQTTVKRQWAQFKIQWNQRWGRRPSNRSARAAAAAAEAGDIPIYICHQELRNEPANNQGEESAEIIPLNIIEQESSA

[2] = target: T2, human amylin receptor (amylin 3(a) receptor: human calcitonin receptor plus RAMP-3) (human, UniProt P30988 25-474; O60896 24-148, limits assumed); experiment: cell-based or functional assay
T2 sequence (looked up) 1: T1 sequence (looked up)
T2 sequence (looked up) 2: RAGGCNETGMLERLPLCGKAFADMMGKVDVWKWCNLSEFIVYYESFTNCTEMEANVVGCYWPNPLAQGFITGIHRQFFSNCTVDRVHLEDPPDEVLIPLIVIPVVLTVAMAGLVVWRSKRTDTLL

B1: N^α1-[(4S)-4-carboxy-4-(19-carboxynonadecanoylamino)butanoyl]-[His14,Arg17,Pro21,Pro27,Glu35]-h-amylin (peptide)
peptide: {C20 diacid-γGlu}-KCNTATCATQRLAHFLRHSSPNFGAIPSSTNVGSETY-NH2
modifications: disulfide 2-7
SMILES: CC[C@H](C)[C@H](NC(=O)[C@H](C)NC(=O)CNC(=O)[C@H](Cc1ccccc1)NC(=O)[C@H](CC(N)=O)NC(=O)[C@@H]1CCCN1C(=O)[C@H](CO)NC(=O)[C@H](CO)NC(=O)[C@H](Cc1c[nH]cn1)NC(=O)[C@H](CCCNC(=N)N)NC(=O)[C@H](CC(C)C)NC(=O)[C@H](Cc1ccccc1)NC(=O)[C@H](Cc1c[nH]cn1)NC(=O)[C@H](C)NC(=O)[C@H](CC(C)C)NC(=O)[C@H](CCCNC(=N)N)NC(=O)[C@H](CCC(N)=O)NC(=O)[C@@H](NC(=O)[C@H](C)NC(=O)[C@@H]1CSSC[C@H](NC(=O)[C@H](CCCCN)NC(=O)CC[C@H](NC(=O)CCCCCCCCCCCCCCCCCCC(=O)O)C(=O)O)C(=O)N[C@@H](CC(N)=O)C(=O)N[C@@H]([C@@H](C)O)C(=O)N[C@@H](C)C(=O)N[C@@H]([C@@H](C)O)C(=O)N1)[C@@H](C)O)C(=O)N1CCC[C@H]1C(=O)N[C@@H](CO)C(=O)N[C@@H](CO)C(=O)N[C@H](C(=O)N[C@@H](CC(N)=O)C(=O)N[C@H](C(=O)NCC(=O)N[C@@H](CO)C(=O)N[C@@H](CCC(=O)O)C(=O)N[C@H](C(=O)N[C@@H](Cc1ccc(O)cc1)C(N)=O)[C@@H](C)O)C(C)C)[C@@H](C)O
notes: Synthetic acylated analogue of human amylin; also called compound 30
hCTR funct. EC50 [1]: 1680 pM
Ratio hCT/hAmylin funct. [2]: 12.6 ratio
hAmylin-R funct. EC50 [2]: 134 pM

B2: N^ε1-[2-[2-[2-[[(4S)-4-carboxy-4-(19-carboxynonadecanoylamino)butanoyl]amino]ethoxy]ethoxy]acetyl]-[Arg17,Pro21,Pro27,Pro29,Pro31]-h-amylin (peptide)
peptide: K([AEEA-γGlu-C20 diacid])CNTATCATQRLANFLRHSSPNFGAIPSPTPVGSNTY-NH2
modifications: disulfide 2-7; N-terminus assumed
SMILES: CC[C@H](C)[C@H](NC(=O)[C@H](C)NC(=O)CNC(=O)[C@H](Cc1ccccc1)NC(=O)[C@H](CC(N)=O)NC(=O)[C@@H]1CCCN1C(=O)[C@H](CO)NC(=O)[C@H](CO)NC(=O)[C@H](Cc1c[nH]cn1)NC(=O)[C@H](CCCNC(=N)N)NC(=O)[C@H](CC(C)C)NC(=O)[C@H](Cc1ccccc1)NC(=O)[C@H](CC(N)=O)NC(=O)[C@H](C)NC(=O)[C@H](CC(C)C)NC(=O)[C@H](CCCNC(=N)N)NC(=O)[C@H](CCC(N)=O)NC(=O)[C@@H](NC(=O)[C@H](C)NC(=O)[C@@H]1CSSC[C@H](NC(=O)[C@@H](N)CCCCNC(=O)COCCOCCNC(=O)CC[C@H](NC(=O)CCCCCCCCCCCCCCCCCCC(=O)O)C(=O)O)C(=O)N[C@@H](CC(N)=O)C(=O)N[C@@H]([C@@H](C)O)C(=O)N[C@@H](C)C(=O)N[C@@H]([C@@H](C)O)C(=O)N1)[C@@H](C)O)C(=O)N1CCC[C@H]1C(=O)N[C@@H](CO)C(=O)N1CCC[C@H]1C(=O)N[C@H](C(=O)N1CCC[C@H]1C(=O)N[C@H](C(=O)NCC(=O)N[C@@H](CO)C(=O)N[C@@H](CC(N)=O)C(=O)N[C@H](C(=O)N[C@@H](Cc1ccc(O)cc1)C(N)=O)[C@@H](C)O)C(C)C)[C@@H](C)O
notes: Synthetic acylated analogue of human amylin; also called compound 54
hCTR funct. EC50 [1]: 987 pM
Ratio hCT/hAmylin funct. [2]: 9.6 ratio
hAmylin-R funct. EC50 [2]: 103 pM

B4: N^ε1-[2-[2-[2-[[(4S)-4-carboxy-4-(19-carboxynonadecanoylamino)butanoyl]amino]ethoxy]ethoxy]acetyl]-[Arg17,Pro21,Pro27,Glu35]-h-amylin (peptide)
peptide: K([AEEA-γGlu-C20 diacid])CNTATCATQRLANFLRHSSPNFGAIPSSTNVGSETY-NH2
modifications: disulfide 2-7; N-terminus assumed
SMILES: CC[C@H](C)[C@H](NC(=O)[C@H](C)NC(=O)CNC(=O)[C@H](Cc1ccccc1)NC(=O)[C@H](CC(N)=O)NC(=O)[C@@H]1CCCN1C(=O)[C@H](CO)NC(=O)[C@H](CO)NC(=O)[C@H](Cc1c[nH]cn1)NC(=O)[C@H](CCCNC(=N)N)NC(=O)[C@H](CC(C)C)NC(=O)[C@H](Cc1ccccc1)NC(=O)[C@H](CC(N)=O)NC(=O)[C@H](C)NC(=O)[C@H](CC(C)C)NC(=O)[C@H](CCCNC(=N)N)NC(=O)[C@H](CCC(N)=O)NC(=O)[C@@H](NC(=O)[C@H](C)NC(=O)[C@@H]1CSSC[C@H](NC(=O)[C@@H](N)CCCCNC(=O)COCCOCCNC(=O)CC[C@H](NC(=O)CCCCCCCCCCCCCCCCCCC(=O)O)C(=O)O)C(=O)N[C@@H](CC(N)=O)C(=O)N[C@@H]([C@@H](C)O)C(=O)N[C@@H](C)C(=O)N[C@@H]([C@@H](C)O)C(=O)N1)[C@@H](C)O)C(=O)N1CCC[C@H]1C(=O)N[C@@H](CO)C(=O)N[C@@H](CO)C(=O)N[C@H](C(=O)N[C@@H](CC(N)=O)C(=O)N[C@H](C(=O)NCC(=O)N[C@@H](CO)C(=O)N[C@@H](CCC(=O)O)C(=O)N[C@H](C(=O)N[C@@H](Cc1ccc(O)cc1)C(N)=O)[C@@H](C)O)C(C)C)[C@@H](C)O
notes: Synthetic acylated analogue of human amylin; also called compound 26
hCTR funct. EC50 [1]: 6340 pM
Ratio hCT/hAmylin funct. [2]: 29.9 ratio
hAmylin-R funct. EC50 [2]: 212 pM

Continued, values first:

hCTR funct. EC50 [1]: 625 pM
Ratio hCT/hAmylin funct. [2]: 9.8 ratio
hAmylin-R funct. EC50 [2]: 64 pM
B3: N^ε1-[2-[2-[2-[[(4S)-4-carboxy-4-(19-carboxynonadecanoylamino)butanoyl]amino]ethoxy]ethoxy]acetyl]-[Arg17,Pro21,Pro27,Pro28,Pro31]-h-amylin (peptide)
peptide: K([AEEA-γGlu-C20 diacid])CNTATCATQRLANFLRHSSPNFGAIPPSTPVGSNTY-NH2
modifications: disulfide 2-7
notes: Synthetic acylated analogue of human amylin; also called compound 53

hCTR funct. EC50 [1]: 10000 pM
Ratio hCT/hAmylin funct. [2]: 46.2 ratio
hAmylin-R funct. EC50 [2]: 217 pM
B5: N^ε1-[2-[2-[2-[[2-[2-[2-[[(4S)-4-carboxy-4-(19-carboxynonadecanoylamino)butanoyl]amino]ethoxy]ethoxy]acetyl]amino]ethoxy]ethoxy]acetyl]-[Arg17,Pro21,Pro27,Glu35 … (peptide)
peptide: K([AEEA-AEEA-γGlu-C20 diacid])CNTATCATQRLANFLRHSSPNFGAIPSSTNVGSETY-NH2
modifications: disulfide 2-7; N-terminus assumed
SMILES: CC[C@H](C)[C@H](NC(=O)[C@H](C)NC(=O)CNC(=O)[C@H](Cc1ccccc1)NC(=O)[C@H](CC(N)=O)NC(=O)[C@@H]1CCCN1C(=O)[C@H](CO)NC(=O)[C@H](CO)NC(=O)[C@H](Cc1c[nH]cn1)NC(=O)[C@H](CCCNC(=N)N)NC(=O)[C@H](CC(C)C)NC(=O)[C@H](Cc1ccccc1)NC(=O)[C@H](CC(N)=O)NC(=O)[C@H](C)NC(=O)[C@H](CC(C)C)NC(=O)[C@H](CCCNC(=N)N)NC(=O)[C@H](CCC(N)=O)NC(=O)[C@@H](NC(=O)[C@H](C)NC(=O)[C@@H]1CSSC[C@H](NC(=O)[C@@H](N)CCCCNC(=O)COCCOCCNC(=O)COCCOCCNC(=O)CC[C@H](NC(=O)CCCCCCCCCCCCCCCCCCC(=O)O)C(=O)O)C(=O)N[C@@H](CC(N)=O)C(=O)N[C@@H]([C@@H](C)O)C(=O)N[C@@H](C)C(=O)N[C@@H]([C@@H](C)O)C(=O)N1)[C@@H](C)O)C(=O)N1CCC[C@H]1C(=O)N[C@@H](CO)C(=O)N[C@@H](CO)C(=O)N[C@H](C(=O)N[C@@H](CC(N)=O)C(=O)N[C@H](C(=O)NCC(=O)N[C@@H](CO)C(=O)N[C@@H](CCC(=O)O)C(=O)N[C@H](C(=O)N[C@@H](Cc1ccc(O)cc1)C(N)=O)[C@@H](C)O)C(C)C)[C@@H](C)O
notes: Synthetic acylated analogue of human amylin; also called compound 25
